Data: patent publication US20190382474A1 (SURFACE ONCOLOGY, published 2019)

Legend:
recombinant mouse IL-27 = target: T1, recombinant mouse IL-27 (mouse, UniProt O35228 19-228; Q8K3I6 29-234, limits assumed); experiment: column 'Affinity mIL-27 (M)'; method not given
T1 construct: also called rodent recombinant IL-27
T1 sequence (looked up) 1: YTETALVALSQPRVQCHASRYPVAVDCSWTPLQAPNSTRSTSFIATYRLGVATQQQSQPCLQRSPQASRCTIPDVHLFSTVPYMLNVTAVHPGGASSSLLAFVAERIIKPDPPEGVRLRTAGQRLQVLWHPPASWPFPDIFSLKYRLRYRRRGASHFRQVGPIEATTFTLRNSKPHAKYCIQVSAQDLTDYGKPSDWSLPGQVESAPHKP
T1 sequence (looked up) 2: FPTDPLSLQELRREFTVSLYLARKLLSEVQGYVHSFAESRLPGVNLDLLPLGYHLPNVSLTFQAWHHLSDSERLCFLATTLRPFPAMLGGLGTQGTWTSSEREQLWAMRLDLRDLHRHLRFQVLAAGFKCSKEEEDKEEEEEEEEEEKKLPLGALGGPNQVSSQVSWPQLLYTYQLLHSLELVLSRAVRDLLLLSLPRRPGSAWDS

recombinant human IL-27 [1] = target: T2, recombinant human IL-27 (human, UniProt Q14213 21-229; Q8NEV9 29-243); experiment: column 'Affinity hIL-27 (M)', property (i); method not given, paragraph 885 names SPR (BIACORE 2000)
T2 construct: Bought from R&D Systems (Cat. 2526-IL); also called hIL-27; rhIL-27
T2 sequence 1: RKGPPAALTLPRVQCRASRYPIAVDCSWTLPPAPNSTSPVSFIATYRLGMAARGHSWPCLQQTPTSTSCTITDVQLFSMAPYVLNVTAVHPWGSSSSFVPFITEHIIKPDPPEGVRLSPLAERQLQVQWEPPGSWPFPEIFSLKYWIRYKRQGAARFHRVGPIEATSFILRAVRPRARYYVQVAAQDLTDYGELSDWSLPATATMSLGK
T2 sequence 2: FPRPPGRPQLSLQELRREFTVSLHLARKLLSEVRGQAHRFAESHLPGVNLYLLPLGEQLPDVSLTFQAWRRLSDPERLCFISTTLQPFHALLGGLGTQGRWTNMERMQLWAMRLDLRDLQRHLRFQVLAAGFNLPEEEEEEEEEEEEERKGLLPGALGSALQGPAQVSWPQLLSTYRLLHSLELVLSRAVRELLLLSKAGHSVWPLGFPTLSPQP

recombinant human IL-27 [2] = target: T2, recombinant human IL-27; experiment: SPR (BIACORE 2000) as the paragraph says; values in FIG. 9
recombinant human IL-27 [3] = target: T2, recombinant human IL-27; experiment: SPR, hIL-27 on CM5 chip, bivalent analyte model
Method: (§1) The antibodies were further characterized by surface plasmon resonance (SPR). Kinetic experiments were performed on a Biacore T200 (GE Healthcare, Uppsala, Sweden). All experiments were run at 25° C. with HBS-P+ running buffer (pH 7.4) (GE Healthcare, Little Chalfont, UK) using hIL-27 (R&D Systems, Abingdon, UK). Human IL-27 (hIL-27) antigen was captured on a CM5 chip to ˜16 RU. Immobilization was carried out at a protein concentration of 1 μg/mL in 10 mM acetate buffer pH 5.0. A three point, three-fold dilution range from 3.3 nM to 30 nM of antibody diluted in HBS-P+ buffer without regeneration between each concentration was used. The association phase for the three injections of increasing concentrations of antibody was monitored for 75 seconds each time and a single dissociation phase was measured for 250 seconds following the last injection of antibody. Regeneration of the hIL-27 surface was conducted using a single injection of 2M MgCl₂ for 120 s. Multiple repeats (n=4) of the chimeric antibody were performed throughout the assay to check the stability of the surface and analyte over the kinetic cycles.
(§2) Both 1:1 binding and bivalent analyte models were used to analyze the data due to the bivalent nature of the antibody. The results from the 1:1 binding model analysis are summarized in Table 4 and results from the bivalent analyte model are summarized in Table 5.

recombinant human IL-27 [4] = target: T2, recombinant human IL-27; experiment: SPR, hIL-27 on CM5 chip, bivalent analyte model (ka1)
Method: as §1, §2

recombinant human IL-27 [5] = target: T2, recombinant human IL-27; experiment: SPR, hIL-27 on CM5 chip, bivalent analyte model (kd1)
Method: as §1, §2

recombinant human IL-27 [6] = target: T2, recombinant human IL-27; experiment: SPR (Biacore T200), hIL-27 on CM5 chip, single cycle, 1:1 model
Method: as §1, §2

Binder | Kd (recombinant mouse IL-27) [nM] | Kd (recombinant human IL-27 [1]) [nM] | Kd (recombinant human IL-27 [2]) [nM] | binding result (recombinant mouse IL-27) | ka2 (recombinant human IL-27 [3]) | kd2 (recombinant human IL-27 [3]) [s⁻¹] | kon (recombinant human IL-27 [4]) [M⁻¹ s⁻¹] | koff (recombinant human IL-27 [5]) [s⁻¹] | Kd (recombinant human IL-27 [6]) [nM] | Relative KD to Ab7.1 (recombinant human IL-27 [6]) | koff (recombinant human IL-27 [6]) [s⁻¹] | kon (recombinant human IL-27 [6]) [M⁻¹ s⁻¹]
SRF410 (antibody, V domains shown, also called SRF410-A; SRF410-B) VH: QVQLVQSGAEVKKPGSSVKVSCKASGGTFSAYAISWVRQAPGQGLEWMGGIIPIFGTANYAQKFQGRVTITADESTSTAYMELSSLRSEDTAVYYCARSYYSSRWHYYYYMDVWGKGTTVTVSS VL: DIQMTQSPSSVSASVGDRVTITCRASQGISSWLAWYQQKPGKAPKLLIYAASNLQSGVPSRFSGSGSGTDFTLTISSLQPEDFATYYCQQADDLPLTFGGGTKVEIK | 5.81 | 0.39 | ≤ 15 |  |  |  |  |  |  |  |  | 
SRF557 (antibody, V domains shown, also called SRF557-A; SRF557-B) VH: QVQLVQSGAEVKKPGSSVKVSCKASGGTFSSYAISWVRQAPGQGLEWMGGIIPIFGTANYAQKFQGRVTITADESTSTAYMELSSLRSEDTAVYYCARLGGRGYADEGWYFDLWGRGTLVTVSS VL: not shown |  |  |  | no binding |  |  |  |  |  |  |  | 
SRF416 (antibody, V domains shown, also called SRF416-A; SRF416-B) VH: QVQLQQWGAGLLKPSETLSLTCAVYGGSFSGYYWSWIRQPPGKGLEWIGEIDVDGSTNYNPSLKSRVTISVDTSKNQFSLKLSSVTAADTAVYYCARDGYYYDTSPYDVWGQGTMVTVSS VL: EIVLTQSPATLSLSPGERATLSCRASQSVSSYLAWYQQKPGQAPRLLIYDASNRATGIPARFSGSGSGTDFTLTISSLEPEDFAVYYCQQRDSFPLTFGGGTKVEIK |  |  |  | no binding |  |  |  |  |  |  |  | 
Ab7.18 (antibody, human IgG1, kappa, V domains shown, human IgG1/kappa) VH: EVQLVESGGGLVQPGGSLRLSCAASGFTFTSYSMSWVRQAPGKGLEWVAYISYDGGSAYYPDTVKGRFTISRDNSKNTLYLQMNSLRAEDTAVYYCARHGDYDDDDAMDYWGQGTLVTVSS VL: DIQMTQSPSSLSASVGDRVTITCRASENIYSYLAWYQQKPGKAPKLLVYNAETLTEGVPSRFSGSGSGTDFTLTISSLQPEDFATYYCQHHYGTPLTFGQGTKLEIKR |  |  |  |  | 0.053 1/RUs | 0.11 | 570000 | 0.0028 | 1.5 | 1.4 | 0.0019 | 1.3e+06
Ab7.20 (antibody, human IgG1, kappa, V domains shown, human IgG1/kappa) VH: EVQLVESGGGLVQPGGSLRLSCAASGFTFTSYSMSWVRQAPGKGLEWVSYISYDGGSAYYPDTVKGRFTISRDNSKNTLYLQMNSLRAEDTAVYYCARHGDYDDDDAMDYWGQGTLVTVSS VL: DIQMTQSPSSLSASVGDRVTITCRASENIYSYLAWYQQKQGKAPKLLVYNAETLTEGVPSRFSGSGSGTDFTLTISSLQPEDFANYYCQHHYGTPLTFGQGTKLDIKR |  |  |  |  | 0.036 1/RUs | 0.086 | 620000 | 0.0025 | 1.4 | 1.4 | 0.0018 | 1.3e+06
Ab7.21 (antibody, human IgG1, kappa, V domains shown, human IgG1/kappa) VH: EVQLVESGGGLVQPGGSLRLSCAASGFTFTSYSMSWVRQAPGKGLEWVSYISYDGGSAYYPDTVKGRFTISRDNSKNTLYLQMNSLRAEDTAVYYCARHGDYDDDDAMDYWGQGTLVTVSS VL: DIQMTQSPSSLSASVGDRVTITCRASENIYSYLAWYQQKPGKAPKLLVYNAETLTEGVPSRFSGSGSGTDFTLTISSLQPEDFANYYCQHHYGTPLTFGQGTKLEIKR |  |  |  |  | 0.043 1/RUs | 0.097 | 550000 | 0.0027 | 1.5 | 1.5 | 0.0019 | 1.2e+06
Ab7.22 (antibody, human IgG1, kappa, V domains shown, human IgG1/kappa) VH: EVQLVESGGGLVQPGGSLRLSCAASGFTFTSYSMSWVRQAPGKGLEWVSYISYDGGSAYYPDTVKGRFTISRDNSKNTLYLQMNSLRAEDTAVYYCARHGDYDDDDAMDYWGQGTLVTVSS VL: DIQMTQSPSSLSASVGDRVTITCRASENIYSYLAWYQQKPGKAPKLLVYNAETLTEGVPSRFSGSGSGTDFTLTISSLQPEDFATYYCQHHYGTPLTFGQGTKLEIKR |  |  |  |  | 0.49 1/RUs | 1.11 | 580000 | 0.0027 | 1.5 | 1.5 | 0.0019 | 1.3e+06
